Results as given in IntAct's records for PubMed 17891154.

Biological target: vps29_human VPS29 (UniProt Q9UBQ0)

Row | Substance | effect of a mutation on the interaction
1 | Vacuolar protein sorting-associated protein 35 (Homo sapiens) (from UniProt Q96QK1) H769A;N772A;H776A | disrupting interaction strength
2 | Vacuolar protein sorting-associated protein 35 (Homo sapiens) (from UniProt Q96QK1) N725A;Y729A | disrupting interaction strength
3 | Vacuolar protein sorting-associated protein 35 (Homo sapiens) (from UniProt Q96QK1) T629D;L630A;G633D;R637D | disrupting interaction strength
4 | Vacuolar protein sorting-associated protein 35 (Homo sapiens) (from UniProt Q96QK1) F534D;F541D | disrupting interaction strength

Next, values leading:

Row | effect of a mutation on the interaction | Substance
5 | disrupting interaction strength | Vacuolar protein sorting-associated protein 35 (Homo sapiens) (from UniProt Q96QK1) L579D;R582D;Q586A;L589D
6 | disrupting interaction strength | Vacuolar protein sorting-associated protein 35 (Homo sapiens) (from UniProt Q96QK1) T672D;H675D
